Consider 8 molecules from US20220267421A1 (INVOX PHARMA, published 2022).

Where a chain is given by its changes, count along the chain named.

T1: cynomolgus MSLN-His-Avi (cynomolgus, single biotin (BirA) in the biotinylated form)
T1 construct: Monomeric, made in HEK293-6E; also called cMSLN-His-Avi; cyno MSLN-His-Avi
T1 chain: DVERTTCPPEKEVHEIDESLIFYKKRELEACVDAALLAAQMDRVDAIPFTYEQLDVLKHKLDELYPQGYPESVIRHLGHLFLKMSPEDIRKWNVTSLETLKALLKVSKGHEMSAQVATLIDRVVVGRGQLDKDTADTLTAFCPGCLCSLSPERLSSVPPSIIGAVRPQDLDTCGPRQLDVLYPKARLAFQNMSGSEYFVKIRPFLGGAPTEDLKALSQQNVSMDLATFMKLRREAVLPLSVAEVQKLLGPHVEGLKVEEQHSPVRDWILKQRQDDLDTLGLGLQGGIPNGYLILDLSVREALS

B1: FS22-053-008-AA/FS28-024-060 mAb^2 (bispecific antibody, human IgG1, kappa, L234A L235A, V domains shown)
VH: EVQLLESGGGLVQPGGSLRLSCAASGFTLSYSSMSWVRQAPGKGLEWVSFITPSTGYTHYADSVKGRFTISRDNSKNTLYLQMNSLRAEDTAVYYCARRALWFDYWGQGTLVTVSS
VL: EIVLTQSPGTLSLSPGERATLSCRASQSVSSSYLAWYQQKPGQAPRLLIYGASSRATGIPDRFSGSGSGTDFTLTISRLEPEDFAVYYCQQASSYPLTFGQGTKVEIKR
B2: FS22-053-008-AA/FS28-256 (bispecific antibody, human IgG1, kappa, L234A L235A, V domains shown)
VH: EVQLLESGGGLVQPGGSLRLSCAASGFTFTNTYMSWVRQAPGKGLEWVSNISPTYSTTNYADSVKGRFTISRDNSKNTLYLQMNSLRAEDTAVYYCARYNSYQGGLDYWGQGTLVTVSS
VL: B1 VL with A92S, S93Y, S94Y, L97I
B3: FS22-053-008-AA/FS28-256-021 mAb^2 (bispecific antibody, human IgG1, kappa, L234A L235A, V domains shown)
VH: B2 VH with N31H, S75N, S101A, Q103H, G104A, G105A
VL: B1 VL with A92H, S93N, S94Q, L97N
B4: FS22-053-008-AA/FS28-256-012 mAb^2 (bispecific antibody, human IgG1, kappa, L234A L235A, V domains shown)
VH: B2 VH with N31H, S75N, S101A, Q103H, G104A, G105A
VL: B1 VL with A92S, S93Y, S94Y, L97I
B5: FS22-053-008-AA/FS28-256-024 mAb^2 (bispecific antibody, human IgG1, kappa, L234A L235A, V domains shown)
VH: B2 VH with N31H, S75N, S101A, Q103H, G104A, G105A
VL: B1 VL with S93L, S94G, L97H
B6: FS22-053-008-AA/FS28-256-023 mAb^2 (bispecific antibody, human IgG1, kappa, L234A L235A, V domains shown)
VH: B2 VH with N31Q, S101A, G104I
VL: B1 VL with A92H, S93N, S94Q, L97N
B7: FS22-053-008-AA/FS28-026 mAb^2 (bispecific antibody, human IgG1, kappa, L234A L235A, V domains shown)
VH: EVQLLESGGGLVQPGGSLRLSCAASGFTFSNYAMTWVRQAPGKGLEWVSSITPYYSKTDYADSVKGRFTISRDNSKNTLYLQMNSLRAEDTAVYYCARNWYRFDYWGQGTLVTVSS
VL: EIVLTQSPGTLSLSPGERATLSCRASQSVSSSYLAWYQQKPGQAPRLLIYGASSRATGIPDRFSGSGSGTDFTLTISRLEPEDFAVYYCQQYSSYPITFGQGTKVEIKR
notes: also called FS28-026 (in mAb^2 format)
B8: FS22-053-008-AA/FS28-091 mAb^2 (bispecific antibody, human IgG1, kappa, L234A L235A, V domains shown)
VH: B7 VH with S30T, T35S, T52K, Y55D, S56G, K57N, D59Y, W100R, Y101W, R102V
VL: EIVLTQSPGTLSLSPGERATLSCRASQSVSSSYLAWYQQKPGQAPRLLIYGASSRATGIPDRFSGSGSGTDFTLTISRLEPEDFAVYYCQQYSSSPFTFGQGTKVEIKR
notes: also called FS28-091 (in mAb^2 format)

T2 sequence (Q13421 other isoform, or with tags, fused parts or gaps): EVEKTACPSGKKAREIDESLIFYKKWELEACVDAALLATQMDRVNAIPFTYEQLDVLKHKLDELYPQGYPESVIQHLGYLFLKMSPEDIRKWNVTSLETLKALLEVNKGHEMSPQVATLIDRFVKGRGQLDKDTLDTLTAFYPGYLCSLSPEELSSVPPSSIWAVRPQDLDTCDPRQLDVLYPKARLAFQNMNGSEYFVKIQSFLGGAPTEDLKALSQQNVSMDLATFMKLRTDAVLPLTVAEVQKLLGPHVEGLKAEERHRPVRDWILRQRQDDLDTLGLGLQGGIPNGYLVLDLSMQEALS
T3 sequence (Q13421 other isoform, or with tags, fused parts or gaps limits assumed): as the sequence (Q13421 other isoform, or with tags, fused parts or gaps) above

One experiment concerns the target T2, human MSLN-His-Avi (human, UniProt Q13421 296-598, single biotin (BirA) in the biotinylated form).
T2 construct: Monomeric, made in HEK293-6E; Used both immobilised and in solution; also called hMSLN-His-Avi; biotinylated hMSLN-His-Avi
The experiment can be described thus: ratio of the two SPR KD. Here is the method: (§1) Human MSLN-His-Avi was immobilised on flow cell 2 on a CM5 Series S BIAcore sensor chip (GE Healthcare, BR100530) using an amine coupling kit (GE Healthcare, BR10050) to approximately 200 response units (RU). Flow cell 1 was left blank for subtraction. HEK293-6E supernatants or purified proteins were adjusted with HBS-EP+(GE Healthcare) to approximately 50 nM anti-MSLN mAb per sample. Samples were injected over flow cell 1 and 2 for 2.5 min at 30 μl/min and then allowed to dissociate in HBS-EP buffer for 2.5 min. Regeneration was achieved by injecting 10 mM glycine pH 1.5 (GE Healthcare, BR100354) for 30 seconds at a rate of 30 μl/min. Subtracted data (flow cell 2−flow cell 1) were analysed using BIAevaluation 3.2 Software (GE Healthcare).
(§2) Binding of the selected anti-MSLN clones in mAb² format, to recombinant human and cyno MSLN-His-Avi antigen was measured by SPR using a Biacore T200 processing unit (GE Healthcare). As previously described, it was desirable to bind more strongly to immobilised antigen than to soluble antigen. To assess the binding properties of the clones, binding kinetics to immobilised MSLN antigen were determined as described in section 2.1.2 and compared to the kinetics obtained when MSLN antigens in solution bound to captured clones.
(§3) For the capture experiments, clones in mAb² format were captured using a BIAcore sensor series S chip Protein G (GE Healthcare, 29179315). mAb² diluted in HBS-EP buffer (GE Healthcare, BR100188) containing 900 mM […] at 1 μg/ml, were injected individually on flow cell 2, 3 and 4 at 30 μl/min to achieve a response of approximately 100 RU. G1-AA/HeID1.3 was captured on flow cell 1. The recombinant human and cyno MSLN-His-Avi (section 1.1), diluted in HBS-EP buffer containing 900 mM […], were injected on flow cell 1, 2, 3 or 4 as appropriate at a concentration range of 1000 nM to 0.051 nM with 3-fold dilutions for 5 minutes at 70 μl/min and then allowed to dissociate in buffer for 5 minutes. Regeneration was achieved by injecting 10 mM glycine pH1.5 (GE Healthcare, BR100354) and surfactant P20 (GE Healthcare, BR-1000-54) for 20 seconds at a rate of 30 μl/min.
With B1, the “Ratio of KD in solution/immobilised for human MSLN-His-Avi” value (from here on “Ratio of KD in solution/immobilised”) worked out at 78.6.

Take B2: the “Ratio of KD in solution/immobilised” value was 37.5.

For B3, the “Ratio of KD in solution/immobilised” value was 7.

Consider B4, for which the “Ratio of KD in solution/immobilised” value turned out to be 209.

With B5, the “Ratio of KD in solution/immobilised” value was 14.3.

As for B6, the “Ratio of KD in solution/immobilised” value was determined as 20.8.

As for B7, the “Ratio of KD in solution/immobilised” value is 5000.

Take B8: the “Ratio of KD in solution/immobilised” value was 580.

Another experiment has as its target T3, cell surface human mesothelin (MSLN) (human, UniProt Q13421 296-598).
T3 construct: whole, on cells; also called cell surface MSLN
Put plainly: flow cytometry, NCI-H226 cells. Here is the method:
(§4) Cells were centrifuged at 1200 rpm for 3 min and resuspended in ice cold FACS buffer made up of DPBS (Life Technologies, 14190169) and 1% BSA (Sigma-Aldrich, A7906) at 2×10⁶ cells/ml and 50 μl per well was seeded in a 96-well V-bottom plate (Costar, 3894). All mAbs tested were diluted in FACS buffer in 120 μl at a concentration range of 0.01-200 nM (4-fold dilutions). The NCI-H226 cells were then centrifuged, supernatant removed and cells resuspended in 100 μl of each mAb dilution and incubated at 4° C. for 45 min. Cells were washed twice by centrifugation with 150 μl FACS buffer, resuspended in 100 μl containing goat anti-human IgG (γ-chain specific) F(ab′)2 fragment-R-Phycoerythrin antibody (Sigma, P8047) diluted 1:1000 in FACS buffer and incubated at 4° C. for 45 min. The cells were washed once with 150 μl FACS buffer and then with 150 μl DPBS, resuspended in 150 μl DPBS containing DAPI (Biotium, 40043) at 1:10.000 and read on the BDCantoll or iQue (Intellicyt). Data was analysed using FlowJo v10 to determine the signal geometric mean for PE for live cells in each well.
(§5) Cell binding assays using OVCAR-3 cells were performed similarly to the assays described in section 2.4. The effect of the presence of soluble MSLN was tested by pre-incubating the antibodies in the presence or absence of soluble MSLN before mixing with cells and determining if the pre-incubation affected binding to MSLN on the cell surface. […] 60 μl from each well was then added to either FACS buffer alone or to FACS buffer containing 60 μl of 40 nM recombinant hMSLN (R&D systems, 3265-MS-050) (to give a final concentration of 20 nM hMSLN) and pre-incubated at room temperature for 1 hour before 100 μl was added to the cells. Bound antibody was detected using goat anti-human anti-Fcγ Alexa-Fluor 488 (Jackson Immunoresearch, 109-546-098).
(§6) The method used was exactly as described in section 3.1.4.
For orientation: Flow cytometry measures light scatter and fluorescence of single cells or particles in a stream.
As a reminder, the EC50 is the concentration needed to bring the measured effect to its halfway point. Take B1: the 50% effective concentration (EC50) amounted to 1.46 nM and the “Emax (MFI)” value stood at 1.01e+06 MFI.

As for B2, the midpoint of the response, the EC50, lay at 15.8 nM and the “Emax (MFI)” value is 276000 MFI.

For the molecule B3, the response was half-maximal at 3.29 nM (EC50) and the “Emax (MFI)” value amounted to 919000 MFI.

B4: the EC50 amounted to 8.48 nM and the “Emax (MFI)” value amounted to 969000 MFI.

B5: the EC50 was determined as 3.88 nM and the “Emax (MFI)” value stood at 813000 MFI.

As to B6, a half-maximal effect (EC50) was put at 3.29 nM and the “Emax (MFI)” value turned out to be 856000 MFI.

Regarding B7, the midpoint of the response, the EC50, lay at 1.91 nM and the “Emax (MFI)” value came to 730000 MFI.

B8: the EC50 turned out to be 2.72 nM and the “Emax (MFI)” value came out at 740000 MFI.

In a further experiment the target is T2, human MSLN-His-Avi. Put plainly: SPR (Biacore), MSLN immobilised, mAb^2 injected. The method, then: as §1, §2
(In general: In SPR one partner is held on a chip, and binding of the other changes the refractive index at the surface.)
A word on the Kd: it is the equilibrium constant for the complex coming apart. Lower therefore signals a tighter complex. The molecule B1 yielded a Kd of 0.07 nM.

Molecule B2 returned a Kd of 23.7 nM.

Take B3: binding was put at a Kd of 3.3 nM.

On to B4, for which binding was characterised by a dissociation constant (Kd) of 4.1 nM.

In turn, B5 gave a dissociation constant (Kd) of 6.7 nM.

B6: binding was put at a Kd of 3.3 nM.

Molecule B7 gave a Kd of 0.14 nM.

As for B8, the affinity, expressed as Kd, was 1.1 nM.

Another experiment has as its target T3, cell surface human mesothelin (MSLN). Put plainly: flow cytometry, NCI-H226 cells + 20 nM soluble MSLN. The method, then: as §4, §5, §6
As to B1, the EC50 stood at 25.7 nM and the “Emax (MFI)” value turned out to be 1.23e+06 MFI.

With B2, the EC50 was determined as 39.4 nM and the “Emax (MFI)” value was determined as 351000 MFI.

For B3, the EC50 came to 7.65 nM and the “Emax (MFI)” value was found to be 839000 MFI.

For the molecule B4, the EC50 is 4.83 nM and the “Emax (MFI)” value turned out to be 790000 MFI.

Take B5: the EC50 came to 3.91 nM and the “Emax (MFI)” value was 669000 MFI.

For B6, the EC50 was found to be 3.9 nM and the “Emax (MFI)” value is 716000 MFI.

In the case of B7, the EC50 worked out at 2.65 nM and the “Emax (MFI)” value stood at 702000 MFI.

In the case of B8, the EC50 was 3.97 nM and the “Emax (MFI)” value amounted to 745000 MFI.

The next experiment addresses T2, human MSLN-His-Avi. Put plainly: SPR (Biacore), mAb^2 captured on Protein G, MSLN in solution injected. Here is the method:
as §2
as §3, with “μl/min. Subtracted data (flow cell 2−flow cell 1, flow cell 3−flow cell 1, or flow cell 4−flow cell 1) were analysed using BIAevaluation 3.2 Software (GE Healthcare) to identify binding using the model 1:1 binding, local Rmax and with refractive index (RI) constant 0.” for “μl/min.”
Molecule B1 registered a Kd of 5.2 nM.

The molecule B2 had a Kd of 889 nM.

On to B3, for which the affinity, expressed as Kd, was 23.2 nM.

As to B4, the Kd was 861 nM.

Consider B5, for which the Kd was 95.4 nM.

Molecule B6 showed a Kd of 68.6 nM.

B7 registered a Kd of 700 nM.

Turning to B8, the Kd is 615 nM.

The next experiment has as its target T1, cynomolgus MSLN-His-Avi. The description is as above. The method, then:
as §2
as §3, with “μl/min. Subtracted data (flow cell 2−flow cell 1, flow cell 3−flow cell 1, or flow cell 4−flow cell 1) were analysed using BIAevaluation 3.2 Software (GE Healthcare) to identify binding using the model 1:1 binding, local Rmax and with refractive index (RI) constant 0.” for “μl/min.”
On to B1, for which the dissociation constant (Kd) was 266 nM.

Regarding B2, the Kd came out at 738 nM.

In the case of B3, the Kd was 16.2 nM.

For B4, the Kd is 717 nM.

For B5, the equilibrium dissociation constant (Kd) amounted to 56.7 nM.

With B6, the Kd was 32.6 nM.

Regarding B7, the Kd is 886 nM.

B8 yielded a dissociation constant (Kd) greater than 1000 nM.
